“And” between values parts separate entries of the source, which are not always exact repeats. Equal values may be shown once.

The source of these data is publication doi:10.1101/2021.08.20.457084.

Experiment [1] has as its target CsGSIb EVK138DIQ mutant (Camellia sinensis). The experiment is described as follows: AUC.
Experiment [2] has the same target. As to the kind of experiment: SEC-MALS. Background: SEC sorts molecules by how far they enter the pores of the column.
Experiment [3] deals with glutamine synthetase CsGSIb from Camellia sinensis, wild type (Camellia sinensis). The experiment is described as follows: cryo-EM structure.
The target is the same in experiment [4]. As to the kind of experiment: cryo-EM structure. The source holds these as a separate data set.
The target is the same in experiment [5]. As to the kind of experiment: negative-stain electron microscopy.
Experiment [6] shares this target. The experiment is described as follows: AUC.
For experiment [7] the target is unchanged. The experiment is described as follows: SEC-MALS.
Experiment [8] has as its target CsGSIb I143L mutant (Camellia sinensis). The experiment is described as follows: AUC.
Experiment [9] has the same target. As to the kind of experiment: SEC-MALS.
Experiment [10] concerns the target glutamine synthetase GmGSβ2 from Glycine max (Glycine max). The experiment is described as follows: cryo-EM structure.
The target is the same in experiment [11]. The experiment is described as follows: negative-stain electron microscopy.
Experiment [12] shares this target. As to the kind of experiment: SEC-MALS.

Usually Kd stands for the equilibrium constant for the complex coming apart. The low end stands for tighter binding, the high end for weaker binding. In general, stoichiometry N refers to a count of units in the complex or per binding partner. The substance CsGSIb EVK138DIQ mutant (enzyme) showed a Kd in experiment [1] of 40 nM. Besides, in experiment [2], the percent of the protein in the decameric state was 72% and the stoichiometry N worked out at 10.

“glutamine synthetase CsGSIb from Camellia sinensis, wild type (enzyme)”: the stoichiometry N in [3] was 10; in [4] it was 5; in experiment [5], 5 and 10; in experiment [6] it was 10 and 5; in experiment [7] it was 5 and 10. Moreover, in experiment [6], the Kd stood at 270 nM. In [7], this substance showed a percent of the protein in the decameric state of 18%. For the same substance, the percent of the protein in the pentameric state in [7] was 82%.

The substance CsGSIb I143L mutant (enzyme) returned a Kd in [8] of 10 nM. Also, in [9], the percent of the protein in the decameric state is over 95% and the stoichiometry N was 10.

Take “glutamine synthetase GmGSβ2 from Glycine max (enzyme)”: the stoichiometry N in experiment [10], in experiment [11] and in [12] was 10 each time.
